The text below walks through data of paper PMC7018950.

The target of test [1] is His6-tagged snapdragon CHS (Antirrhinum majus (snapdragon)) (UniProt P06515). The test can be described thus: cross-linking; His6-AmCHIL 10 µM and His6-AmCHS 5 µM with 4 mM BS3 at pH 7.5 for 5 min; SDS-PAGE and immunoblot; band of 70 kDa.
For test [2] the target is unchanged.
Test [3] addresses PpCHS (GAL4 two-hybrid fusion) (Physcomitrella patens).
The target in test [4] is His6-tagged CHS of ginkgo (Ginkgo biloba). The test can be described thus: BLI; BLItz; His6-tagged CHS immobilised on anti-His6 sensors, GST-tagged CHIL loaded; 100 mM HEPES-NaOH pH 7.5; 1:1 binding model; apparent KD.
The target of test [5] is His6-tagged Ginkgo biloba chalcone synthase (GbCHS) (Ginkgo biloba). As to the kind of experiment: BLI; BLItz; His6-tagged CHS immobilised on anti-His6 sensors, GST-tagged CHIL loaded (30-150 s), wash (150-270 s); 100 mM HEPES-NaOH, pH 7.5; 1:1 binding model; apparent KD. In general terms: BLI is a label-free optical method that tracks binding on a fibre tip over time.
Test [6] deals with His6-tagged Hydrangea macrophylla chalcone synthase (HmCHS) (Hydrangea macrophylla) (UniProt O82144). Described as above.
In test [7] the target is His6-tagged Physcomitrella patens chalcone synthase (PpCHS) (Physcomitrella patens). Described as above.
Test [8] concerns the target His6-tagged Selaginella moellendorffii chalcone synthase (SmCHS) (Selaginella moellendorffii). Described as above.
In test [9] the target is His6-tagged morning glory chalcone synthase D (InCHS-D) (Ipomoea nil) (UniProt O22045). The test is described as above.
For test [10], the target named is His6-tagged rice chalcone synthase 1 (OsCHS-1) (Oryza sativa) (UniProt Q2R3A1). The description is as above.
Test [11] has as its target His6-tagged snapdragon chalcone synthase (His6-AmCHS) (Antirrhinum majus) (UniProt P06515). Described as above.
Test [12] deals with His6-tagged soybean chalcone synthase isozyme 7 (GmCHS-7) (Glycine max) (UniProt P30081). The test is described as above.
Test [13] deals with His6-tagged soybean chalcone synthase isozyme 1 (GmCHS-1) (Glycine max) (UniProt P24826). Described as above.
His6-tagged soybean chalcone synthase isozyme 1 (GmCHS-1) (Glycine max), sequence (P24826 whole entry): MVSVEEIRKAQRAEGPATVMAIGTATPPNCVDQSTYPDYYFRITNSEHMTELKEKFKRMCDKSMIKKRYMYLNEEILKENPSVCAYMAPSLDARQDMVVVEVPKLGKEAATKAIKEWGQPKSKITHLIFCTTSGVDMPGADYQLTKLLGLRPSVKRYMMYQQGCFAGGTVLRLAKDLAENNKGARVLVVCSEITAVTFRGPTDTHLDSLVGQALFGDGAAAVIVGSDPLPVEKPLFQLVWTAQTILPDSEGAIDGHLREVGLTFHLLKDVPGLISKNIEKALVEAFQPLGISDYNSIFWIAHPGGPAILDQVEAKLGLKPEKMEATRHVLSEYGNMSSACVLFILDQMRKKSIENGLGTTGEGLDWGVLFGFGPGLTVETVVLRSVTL

His6-tagged rice chalcone synthase 1 (OsCHS-1) (Oryza sativa), sequence (Q2R3A1 whole entry): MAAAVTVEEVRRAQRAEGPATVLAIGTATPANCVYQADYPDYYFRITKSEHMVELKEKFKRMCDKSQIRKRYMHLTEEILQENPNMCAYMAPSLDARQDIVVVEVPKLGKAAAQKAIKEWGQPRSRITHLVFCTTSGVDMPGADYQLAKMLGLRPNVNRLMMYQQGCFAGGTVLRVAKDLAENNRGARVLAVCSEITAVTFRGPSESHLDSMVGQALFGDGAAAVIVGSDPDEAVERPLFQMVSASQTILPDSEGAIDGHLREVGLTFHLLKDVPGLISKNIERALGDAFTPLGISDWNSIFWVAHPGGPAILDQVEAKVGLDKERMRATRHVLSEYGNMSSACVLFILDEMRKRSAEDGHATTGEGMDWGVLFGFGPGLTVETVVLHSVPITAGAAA
His6-tagged Hydrangea macrophylla chalcone synthase (HmCHS) (Hydrangea macrophylla), sequence (O82144 whole entry): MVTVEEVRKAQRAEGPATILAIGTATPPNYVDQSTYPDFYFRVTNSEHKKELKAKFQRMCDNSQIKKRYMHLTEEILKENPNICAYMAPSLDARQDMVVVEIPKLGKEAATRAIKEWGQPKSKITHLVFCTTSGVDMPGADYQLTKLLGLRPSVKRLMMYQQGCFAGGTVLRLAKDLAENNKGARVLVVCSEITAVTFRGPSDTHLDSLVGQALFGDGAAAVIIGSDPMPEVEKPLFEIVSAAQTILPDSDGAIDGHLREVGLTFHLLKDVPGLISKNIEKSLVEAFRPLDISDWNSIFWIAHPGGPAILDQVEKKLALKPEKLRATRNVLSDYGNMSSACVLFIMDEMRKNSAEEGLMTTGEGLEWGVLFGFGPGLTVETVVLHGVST
His6-tagged soybean chalcone synthase isozyme 7 (GmCHS-7) (Glycine max), sequence (P30081 whole entry): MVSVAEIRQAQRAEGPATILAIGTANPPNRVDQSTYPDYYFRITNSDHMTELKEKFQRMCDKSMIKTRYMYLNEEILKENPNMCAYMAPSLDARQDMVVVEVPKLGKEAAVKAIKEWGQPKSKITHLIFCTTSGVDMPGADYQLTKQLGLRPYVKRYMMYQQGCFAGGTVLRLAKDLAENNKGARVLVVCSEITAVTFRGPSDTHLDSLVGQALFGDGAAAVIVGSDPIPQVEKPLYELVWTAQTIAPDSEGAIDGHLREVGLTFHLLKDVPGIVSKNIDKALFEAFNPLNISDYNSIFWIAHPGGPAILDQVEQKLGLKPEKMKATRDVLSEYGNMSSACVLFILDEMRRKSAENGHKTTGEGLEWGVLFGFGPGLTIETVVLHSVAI
His6-tagged snapdragon chalcone synthase (His6-AmCHS) (Antirrhinum majus), sequence (P06515 whole entry): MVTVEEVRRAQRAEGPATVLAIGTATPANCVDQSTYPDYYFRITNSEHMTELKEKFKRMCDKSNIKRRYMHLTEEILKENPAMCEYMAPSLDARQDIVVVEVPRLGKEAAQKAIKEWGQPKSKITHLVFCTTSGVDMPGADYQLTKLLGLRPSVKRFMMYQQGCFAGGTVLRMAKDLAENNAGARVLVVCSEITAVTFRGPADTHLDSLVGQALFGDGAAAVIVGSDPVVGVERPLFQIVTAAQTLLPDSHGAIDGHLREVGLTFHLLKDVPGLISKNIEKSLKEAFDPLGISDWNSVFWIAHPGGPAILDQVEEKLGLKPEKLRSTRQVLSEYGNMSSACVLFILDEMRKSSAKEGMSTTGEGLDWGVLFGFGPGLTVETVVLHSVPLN
His6-tagged snapdragon CHS (Antirrhinum majus (snapdragon)), sequence (P06515 whole entry): as above
His6-tagged Physcomitrella patens chalcone synthase (PpCHS) (Physcomitrella patens), sequence (Q2VAZ3 entry or part of it): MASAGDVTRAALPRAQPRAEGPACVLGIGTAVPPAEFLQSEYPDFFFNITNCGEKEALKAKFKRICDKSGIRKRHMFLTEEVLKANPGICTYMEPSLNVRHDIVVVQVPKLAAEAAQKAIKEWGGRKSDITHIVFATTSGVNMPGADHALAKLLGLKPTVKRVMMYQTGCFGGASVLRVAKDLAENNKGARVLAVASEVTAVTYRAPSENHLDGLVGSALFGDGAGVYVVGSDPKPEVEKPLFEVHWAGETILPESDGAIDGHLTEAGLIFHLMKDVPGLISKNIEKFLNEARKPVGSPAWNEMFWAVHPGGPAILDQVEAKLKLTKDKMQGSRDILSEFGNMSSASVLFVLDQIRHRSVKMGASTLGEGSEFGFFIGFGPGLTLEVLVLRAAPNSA
His6-tagged morning glory chalcone synthase D (InCHS-D) (Ipomoea nil), sequence (O22045 whole entry): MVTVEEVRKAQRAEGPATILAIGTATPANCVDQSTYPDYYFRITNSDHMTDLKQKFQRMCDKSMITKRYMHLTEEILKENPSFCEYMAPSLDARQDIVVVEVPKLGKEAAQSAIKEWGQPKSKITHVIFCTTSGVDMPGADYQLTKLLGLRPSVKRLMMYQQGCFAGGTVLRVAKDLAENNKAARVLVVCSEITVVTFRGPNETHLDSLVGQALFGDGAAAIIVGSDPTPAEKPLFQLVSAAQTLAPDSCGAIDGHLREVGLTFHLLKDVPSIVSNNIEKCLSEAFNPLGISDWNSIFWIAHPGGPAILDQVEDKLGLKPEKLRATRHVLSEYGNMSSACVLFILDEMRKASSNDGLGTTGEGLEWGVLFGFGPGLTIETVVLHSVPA

In test [1], “His6-tagged snapdragon CHIL (natural protein)” displayed a stoichiometry N (CHIL monomer per CHS monomer) of 1. Moreover, in test [2], the E value (chalconoid excess over CTAL) of the reaction catalysed by 0.1 µM AmCHS in the presence of 1 µM CHIL (+18% without CHIL) turned out to be 80%; the amount of THC and naringenin (chalconoids) formed by 0.1 µM AmCHS with 1.0 µM AmCHIL against without, with a substantial decrease in CTAL formation is 1.7 fold.
Turning to “PpCHIL (GAL4 two-hybrid fusion) (natural protein)”, the E value (chalconoid excess over CTAL) of the reaction catalysed by 0.1 µM PpCHS in the presence of 1 µM CHIL (−67% without CHIL); purified recombinant proteins in [3] stood at 90%.
In the case of “glutathione S-transferase-tagged CHIL of ginkgo (natural protein)”, the Kd in test [4] turned out to be 126 nM.
Regarding “glutathione S-transferase-tagged Ginkgo biloba chalcone isomerase-like protein (GbCHIL) (natural protein)”, in test [5], the dissociation rate constant (koff) – broadly, the first-order rate constant of dissociation – stood at 0.000154 s⁻¹ and the on-rate constant (kon) – broadly, a measure of how fast the partners come together – was determined as 20200 M⁻¹ s⁻¹.
For “glutathione S-transferase-tagged Hydrangea macrophylla chalcone isomerase-like protein (HmCHIL) (natural protein)”, in test [6], the Kd turned out to be 24.1 nM, the koff amounted to 0.00277 s⁻¹ and the kon came to 115000 M⁻¹ s⁻¹.
For “glutathione S-transferase-tagged Physcomitrella patens chalcone isomerase-like protein A (PpCHIL-A) (natural protein)”, in test [7], the Kd amounted to 2.69 nM, the off-rate (koff) was found to be 0.000319 s⁻¹ and the kon worked out at 118000 M⁻¹ s⁻¹.
Regarding “glutathione S-transferase-tagged Selaginella moellendorffii chalcone isomerase-like protein (SmCHIL) (natural protein)”, in test [8], the Kd amounted to 56.6 nM, the koff worked out at 0.000674 s⁻¹ and the kon amounted to 11900 M⁻¹ s⁻¹.
As for “glutathione S-transferase-tagged morning glory chalcone isomerase-like protein (InCHIL) (natural protein)”, in test [9], the Kd amounted to 1.05 nM, the off-rate constant (koff) was 0.000206 s⁻¹ and the kon was 196000 M⁻¹ s⁻¹.
“glutathione S-transferase-tagged rice chalcone isomerase-like protein A (OsCHIL-A) (natural protein)”: in test [10], the Kd worked out at 64.4 nM, the koff was determined as 0.000672 s⁻¹ and the on-rate (kon) was found to be 10400 M⁻¹ s⁻¹.
In the case of “glutathione S-transferase-tagged snapdragon chalcone isomerase-like protein (AmCHIL) (natural protein)”, in test [11], the Kd was 62.6 nM, the dissociation rate constant (koff) turned out to be 0.00183 s⁻¹ and the on-rate constant (kon) came out at 29300 M⁻¹ s⁻¹.
Consider “glutathione S-transferase-tagged soybean chalcone isomerase-like protein (GmCHIL) (natural protein)”, for which, in [12], the Kd was found to be 19.3 nM, the off-rate (koff) is 0.00113 s⁻¹ and the kon worked out at 58300 M⁻¹ s⁻¹. Besides, in test [13], the Kd came to 7.46 nM, the koff stood at 0.000381 s⁻¹ and the kon is 51000 M⁻¹ s⁻¹.
